Read-outs that look alike come from different tables or passages of the source. One block for each molecule: values may come before it.
How the values were obtained:
human BMP2 protein [1] = target: T1, human BMP2 protein (human, UniProt P12643 283-396); assay: ELISA, coated protein, antibody at 4 µg/mL
T1 construct: Bought

human Activin A protein [2] = target: T2, human Activin A protein (human, UniProt P08476 311-426); assay: ELISA, coated protein, antibody at 4 µg/mL
T2 construct: Bought; Activin A is by nature a dimer of inhibin beta A chains
T2 sequence (looked up): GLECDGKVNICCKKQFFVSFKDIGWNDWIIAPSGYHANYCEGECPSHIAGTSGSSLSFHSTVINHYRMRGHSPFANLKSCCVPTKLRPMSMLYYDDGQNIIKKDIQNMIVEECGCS

human Activin B protein [3] = target: T3, human Activin B protein (human, UniProt P09529 293-407); assay: ELISA, coated protein, antibody at 4 µg/mL
T3 construct: Bought; Activin B is by nature a dimer of inhibin beta B chains
T3 sequence (looked up): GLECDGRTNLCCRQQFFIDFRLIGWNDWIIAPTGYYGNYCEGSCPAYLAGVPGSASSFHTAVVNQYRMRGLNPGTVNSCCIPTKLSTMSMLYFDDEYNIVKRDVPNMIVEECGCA

human GDF1 protein [4] = target: T4, human GDF1 protein (human, UniProt P27539 254-372, limits assumed); assay: ELISA, coated protein, antibody at 4 µg/mL
T4 construct: Bought
T4 sequence (looked up): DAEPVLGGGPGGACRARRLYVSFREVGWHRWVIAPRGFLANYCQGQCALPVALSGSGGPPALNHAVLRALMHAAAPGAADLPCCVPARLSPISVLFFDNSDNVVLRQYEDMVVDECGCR

human GDF2 protein [5] = target: T5, human GDF2 protein (human, UniProt Q9UK05 320-429); assay: ELISA, coated protein, antibody at 4 µg/mL
T5 construct: Bought
T5 sequence (looked up): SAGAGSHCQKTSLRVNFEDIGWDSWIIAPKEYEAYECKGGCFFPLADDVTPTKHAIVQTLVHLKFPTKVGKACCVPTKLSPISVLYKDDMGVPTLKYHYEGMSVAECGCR

human GDF3 protein [6] = target: T6, human GDF3 protein (human, UniProt Q9NR23 251-364, limits assumed); assay: ELISA, coated protein, antibody at 4 µg/mL
T6 construct: Bought
T6 sequence (looked up): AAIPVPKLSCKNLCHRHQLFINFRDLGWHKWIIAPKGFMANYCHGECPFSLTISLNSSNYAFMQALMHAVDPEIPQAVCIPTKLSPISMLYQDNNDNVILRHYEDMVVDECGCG

human BMP4 protein [7] = target: T7, human BMP4 protein (human, UniProt P12644 293-408); assay: ELISA, coated protein, antibody at 4 µg/mL
T7 construct: Bought
T7 sequence (looked up): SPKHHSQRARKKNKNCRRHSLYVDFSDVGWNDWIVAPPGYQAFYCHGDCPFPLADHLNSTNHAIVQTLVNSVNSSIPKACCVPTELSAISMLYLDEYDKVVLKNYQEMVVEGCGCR

human GDF11 protein [8] = target: T8, human GDF11 protein (human, UniProt O95390 299-407); assay: ELISA, coated protein, antibody at 4 µg/mL
T8 construct: Bought
T8 sequence (looked up): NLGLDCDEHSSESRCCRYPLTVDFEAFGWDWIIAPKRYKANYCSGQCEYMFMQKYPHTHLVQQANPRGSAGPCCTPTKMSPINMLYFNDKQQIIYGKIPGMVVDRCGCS

human GDNF protein = target: T9, human GDNF protein (human, UniProt P39905 78-211); assay: ELISA, coated protein, antibody at 4 µg/mL
T9 construct: Bought
T9 sequence (looked up): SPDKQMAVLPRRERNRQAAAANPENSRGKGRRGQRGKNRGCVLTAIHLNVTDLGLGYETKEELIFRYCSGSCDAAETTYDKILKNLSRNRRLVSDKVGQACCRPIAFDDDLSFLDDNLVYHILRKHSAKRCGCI

human TGFβ1 protein [9] = target: T10, human TGFβ1 protein (human, UniProt P01137 279-390); assay: ELISA, coated protein, antibody at 4 µg/mL
T10 construct: Bought

human GFRα1 protein [10] = target: T11, human GFRα1 protein (human, UniProt P56159 25-429, limits assumed); assay: ELISA, coated protein, antibody at 4 µg/mL
T11 construct: Bought
T11 sequence (looked up): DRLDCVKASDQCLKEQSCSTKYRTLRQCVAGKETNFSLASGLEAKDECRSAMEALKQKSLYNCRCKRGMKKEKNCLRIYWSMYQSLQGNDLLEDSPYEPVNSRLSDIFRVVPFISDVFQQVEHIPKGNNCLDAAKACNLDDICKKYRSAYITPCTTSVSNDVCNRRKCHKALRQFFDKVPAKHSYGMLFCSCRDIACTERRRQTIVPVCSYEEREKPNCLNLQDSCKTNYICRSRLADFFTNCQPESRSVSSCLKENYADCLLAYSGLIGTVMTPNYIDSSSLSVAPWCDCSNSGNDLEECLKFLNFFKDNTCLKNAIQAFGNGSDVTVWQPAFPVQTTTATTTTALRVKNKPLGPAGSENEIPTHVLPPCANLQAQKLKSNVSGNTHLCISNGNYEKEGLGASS

human BMP2 protein [11] = target: T1, human BMP2 protein; assay: ELISA, coated protein, antibody at 4 µg/mL; remark: listed apart in the source
human Activin A protein [12] = target: T2, human Activin A protein; assay: ELISA, coated protein, antibody at 4 µg/mL; remark: listed apart in the source
human Activin B protein [13] = target: T3, human Activin B protein; assay: ELISA, coated protein, antibody at 4 µg/mL; remark: listed apart in the source
Human GDF15 protein = target: T12, Human GDF15 protein (human, UniProt Q99988 197-308); assay: ELISA, coated protein, antibody at 4 µg/mL
T12 construct: Natural GDF15 is said to be a disulfide-linked homodimer; also called Human-GDF15-his
T12 sequence: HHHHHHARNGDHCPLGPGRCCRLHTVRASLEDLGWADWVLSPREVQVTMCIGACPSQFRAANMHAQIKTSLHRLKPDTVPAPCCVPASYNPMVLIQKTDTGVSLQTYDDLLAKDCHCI

[14] = target: human AMH protein (human) (UniProt P03971); assay: ELISA, coated protein, antibody at 4 µg/mL
[15] = target: human GDF8 protein (human) (UniProt O14793); assay: ELISA, coated protein, antibody at 4 µg/mL
human GDF1 protein [16] = target: T4, human GDF1 protein; assay: ELISA, coated protein
human GDF2 protein [17] = target: T5, human GDF2 protein; assay: ELISA, coated protein
human GDF3 protein [18] = target: T6, human GDF3 protein; assay: ELISA, coated protein
human BMP4 protein [19] = target: T7, human BMP4 protein; assay: ELISA, coated protein
human GDF11 protein [20] = target: T8, human GDF11 protein; assay: ELISA, coated protein
human TGFβ1 protein [21] = target: T10, human TGFβ1 protein; assay: ELISA, coated protein
human GFRα1 protein [22] = target: T11, human GFRα1 protein; assay: ELISA, coated protein
human BMP2 protein [23] = target: T1, human BMP2 protein; assay: ELISA, coated protein
human Activin A protein [24] = target: T2, human Activin A protein; assay: ELISA, coated protein
human Activin B protein [25] = target: T3, human Activin B protein; assay: ELISA, coated protein
human GDF1 protein [26] = target: T4, human GDF1 protein; assay: ELISA, coated protein, antibody at 4 µg/mL; remark: listed apart in the source
human GDF2 protein [27] = target: T5, human GDF2 protein; assay: ELISA, coated protein, antibody at 4 µg/mL; remark: listed apart in the source
human GDF3 protein [28] = target: T6, human GDF3 protein; assay: ELISA, coated protein, antibody at 4 µg/mL; remark: listed apart in the source
human BMP4 protein [29] = target: T7, human BMP4 protein; assay: ELISA, coated protein, antibody at 4 µg/mL; remark: listed apart in the source
human GDF11 protein [30] = target: T8, human GDF11 protein; assay: ELISA, coated protein, antibody at 4 µg/mL; remark: listed apart in the source
human TGFβ1 protein [31] = target: T10, human TGFβ1 protein; assay: ELISA, coated protein, antibody at 4 µg/mL; remark: listed apart in the source
human GFRα1 protein [32] = target: T11, human GFRα1 protein; assay: ELISA, coated protein, antibody at 4 µg/mL; remark: listed apart in the source
human BMP2 protein [33] = target: T1, human BMP2 protein; assay: ELISA, coated protein, antibody at 4 µg/mL; remark: listed apart in the source
human Activin A protein [34] = target: T2, human Activin A protein; assay: ELISA, coated protein, antibody at 4 µg/mL; remark: listed apart in the source
human Activin B protein [35] = target: T3, human Activin B protein; assay: ELISA, coated protein, antibody at 4 µg/mL; remark: listed apart in the source
human FcRn protein = target: T13, human FcRn protein (human, UniProt P55899 24-297); assay: BLI (Octet RED96e), FcRn on SA sensor, antibody as analyte, binding and dissociation at pH 6.0, 1:1 model
T13 construct: Bought, loaded on a streptavidin (SA) sensor; FcRn is by nature a heterodimer with beta-2-microglobulin
T13 sequence (P55899 24-297 limits assumed, form in doubt): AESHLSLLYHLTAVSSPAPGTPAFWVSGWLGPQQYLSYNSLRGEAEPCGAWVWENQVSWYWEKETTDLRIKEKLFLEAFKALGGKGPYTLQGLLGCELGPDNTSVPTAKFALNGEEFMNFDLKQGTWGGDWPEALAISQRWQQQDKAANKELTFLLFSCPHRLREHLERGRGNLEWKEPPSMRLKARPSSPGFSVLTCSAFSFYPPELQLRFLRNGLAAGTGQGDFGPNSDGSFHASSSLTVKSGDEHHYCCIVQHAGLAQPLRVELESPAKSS

T10 sequence (P01137 279-390 limits assumed): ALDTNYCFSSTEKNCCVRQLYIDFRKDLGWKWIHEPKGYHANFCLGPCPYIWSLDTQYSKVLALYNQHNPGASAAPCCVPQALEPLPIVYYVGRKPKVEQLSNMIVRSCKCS
T1 sequence (P12643 283-396 limits assumed): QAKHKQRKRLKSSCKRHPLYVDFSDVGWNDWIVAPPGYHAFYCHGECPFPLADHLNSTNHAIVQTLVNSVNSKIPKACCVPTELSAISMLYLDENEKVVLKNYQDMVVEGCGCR

OD value (OD 450 nm-620 nm) (human BMP2 protein [1]): 0.265 | OD value (OD 450 nm-620 nm) (human Activin A protein [2]): 0.0698 | OD value (OD 450 nm-620 nm) (human Activin B protein [3]): 0.187 | OD value (OD 450 nm-620 nm) (human GDF1 protein [4]): 0.0818 | OD value (OD 450 nm-620 nm) (human GDF2 protein [5]): 0.555 | OD value (OD 450 nm-620 nm) (human GDF3 protein [6]): 0.0676 | OD value (OD 450 nm-620 nm) (human BMP4 protein [7]): 0.0639 | OD value (OD 450 nm-620 nm) (human GDF11 protein [8]): 0.0375 | OD value (OD 450 nm-620 nm) (human GDNF protein): 1.21 | OD value (OD 450 nm-620 nm) (human TGFβ1 protein [9]): 0.129 | OD value (OD 450 nm-620 nm) (human GFRα1 protein [10]): 0.124 | OD value (OD 450 nm-620 nm) (human BMP2 protein [11]): 0.227 | OD value (OD 450 nm-620 nm) (human Activin A protein [12]): 0.0863 | OD value (OD 450 nm-620 nm) (human Activin B protein [13]): 0.156 | OD value (OD 450 nm-620 nm) (Human GDF15 protein): 3.33 | OD value (OD 450 nm-620 nm) [14]: 0.0754 | OD value (OD 450 nm-620 nm) [15]: 0.0755
Molecule: Ponsegromab (antibody)

binding result (human GDF1 protein [16]): no binding (tested: 4 µg/mL) | binding result (human GDF2 protein [17]): no binding (tested: 4 µg/mL) | binding result (human GDF3 protein [18]): no binding (tested: 4 µg/mL) | binding result (human BMP4 protein [19]): no binding (tested: 4 µg/mL) | binding result (human GDF11 protein [20]): no binding (tested: 4 µg/mL) | binding result (human TGFβ1 protein [21]): no binding (tested: 4 µg/mL) | binding result (human GFRα1 protein [22]): no binding (tested: 4 µg/mL) | binding result (human BMP2 protein [23]): no binding (tested: 4 µg/mL) | binding result (human Activin A protein [24]): no binding (tested: 4 µg/mL) | binding result (human Activin B protein [25]): no binding (tested: 4 µg/mL) | OD value (OD 450 nm-620 nm) (human GDNF protein): 0.296 | OD value (OD 450 nm-620 nm) (Human GDF15 protein): 2.39 | OD value (OD 450 nm-620 nm) [14]: 0.0409 | OD value (OD 450 nm-620 nm) [15]: 0.0508 | OD value (human GDF1 protein [26]): 0.144 OD 450 nm-620 nm | OD value (human GDF2 protein [27]): 0.0643 OD 450 nm-620 nm | OD value (human GDF3 protein [28]): 0.0907 OD 450 nm-620 nm | OD value (human BMP4 protein [29]): 0.0595 OD 450 nm-620 nm | OD value (human GDF11 protein [30]): 0.0709 OD 450 nm-620 nm | OD value (human TGFβ1 protein [31]): 0.114 OD 450 nm-620 nm | OD value (human GFRα1 protein [32]): 0.132 OD 450 nm-620 nm | OD value (human BMP2 protein [33]): 0.0973 OD 450 nm-620 nm | OD value (human Activin A protein [34]): 0.0582 OD 450 nm-620 nm | OD value (human Activin B protein [35]): 0.114 OD 450 nm-620 nm | Kd (human FcRn protein): 2.89 nM | koff (human FcRn protein): 0.00257 s⁻¹ | kon (human FcRn protein): 889000 M⁻¹ s⁻¹
B1: hu19C4C7-YTE (antibody, human IgG1, kappa)
heavy: QVQLVQSGAEVKKPGSSVKVSCKASGYSFTGYIMNWVRQAPGQSLEWMGDIDPYYGGPNYNQKFQGRVTITVDKSTSTAYMELSSLRSEDTAVYYCSRRDYNYGSFAYWGQGTLVTVSSASTKGPSVFPLAPSSKSTSGGTAALGCLVKDYFPEPVTVSWNSGALTSGVHTFPAVLQSSGLYSLSSVVTVPSSSLGTQTYICNVNHKPSNTKVDKKVEPKSCDKTHTCPPCPAPEAAGAPSVFLFPPKPKDTLYITREPEVTCVVVDVSHEDPEVKFNWYVDGVEVHNAKTKPREEQYNSTYRVVSVLTVLHQDWLNGKEYKCKVSNKALPAPIEKTISKAKGQPREPQVYTLPPSREEMTKNQVSLTCLVKGFYPSDIAVEWESNGQPENNYKTTPPVLDSDGSFFLYSKLTVDKSRWQQGNVFSCSVMHEALHNHYTQKSLSLSPGK
light: QIVLTQSPATLSLSPGERATLSCRASSSVNYMHWYQQKPGQAPRPLIYATSNLATGIPARFSGSGSGTDYTLTISSLEPEDFAVYYCQQWSDNPPTFGQGTKLEIKRTVAAPSVFIFPPSDEQLKSGTASVVCLLNNFYPREAKVQWKVDNALQSGNSQESVTEQDSKDSTYSLSSTLTLSKADYEKHKVYACEVTHQGLSSPVTKSFNRGEC
notes: Hu19C4C7 with human IgG1 constant region carrying L234A, L235A, G237A, M252Y, S254T, T256E (EU numbering); also called hu19C4C7-YTE-IgG1-mut
